As a reminder, the Kd is the equilibrium constant for the complex coming apart.

Sequences and labels used below:
B1: scFv; the commonest letter at each place (parent)
chain 1: EVKLDETGGGLVQPGRPMKLSCVASGFTFSDYWMNWVRQSPEKGLEWVAQIRNKPYNYETYYSDSVKGRFTISRDDSKSSVYLQMNNLRVEDMGIYYCTGSYYGMDYWGQGTSVTVS
chain 2: DVVMTQTPLSLPVSLGDQASISCRSSQSLVHSNGNTYLRWYLQKPGQSPKVLIYKVSNRFSGVPDRFSGSGSGTDFTLKISRVEAEDLGVYFCSQSTHVPWTFGGGTKLEIK

Where only a bound is given, the exact number is not on record here.

Variants of B1 are the subject of the series “fluorescein”. Nature of the series: Kd (Tite-Seq). The note with it: with fluorescein; format: scFv 4-4-20, heavy + light.
Series [1] covers variants of B1. As to the kind of experiment: yeast surface expression (ratio to wild type); higher = more expressed. The note with it: format: scFv 4-4-20, heavy + light.

Turning to chain 1 EVKLDETGGGLVQPGRPMKLSCVASGFTFSDYWMNWVRQSPEKGLEWVAQIRNKPYNYETYYSDSVKGRFTISRDDSKSSVYLQMNNLRVEDMGIYYCTGSYYGMDYWFQGTSVTVS chain 2 DVVMTQTPLSLPVSLGDQASISCRSSQSLVHSNGNTYLRWYLQKPGQSPKVLIYKVSNRFSGVPDRFSGSGSGTDFTLKISRVEAEDLGVYFCSQSTHVPWTFGGGTKLEIK [chain 1 G109F], the Kd in the series with fluorescein is not below 10 µM. Further, in series [1], the yeast surface expression came to 0.305.

Regarding chain 1 EVKLDETGGGLVQPGRPMKLSCVASGFTFSDYWMNWVRQSPEKGLEWVAQIRNKPYNYETYYSDSVKGRFTISRDDSKSSVYLQMNNLRVEDMGIYYCTGSYYGMDYWMQGTSVTVS chain 2 DVVMTQTPLSLPVSLGDQASISCRSSQSLVHSNGNTYLRWYLQKPGQSPKVLIYKVSNRFSGVPDRFSGSGSGTDFTLKISRVEAEDLGVYFCSQSTHVPWTFGGGTKLEIK [chain 1 G109M], in the series with fluorescein, the Kd is not below 10 µM. For the same variant, the yeast surface expression in series [1] was 0.213.

Take chain 1 EVKLDETGGGLVQPGRPMKLSCVASGFTFSDYWMNWVRQSPEKGLEWVAQIRNKPYNYETYYSDSVKGRFTISRDDSKSSVYLQMNNLRVEDMGIYYCTGSYYGMDYWPQGTSVTVS chain 2 DVVMTQTPLSLPVSLGDQASISCRSSQSLVHSNGNTYLRWYLQKPGQSPKVLIYKVSNRFSGVPDRFSGSGSGTDFTLKISRVEAEDLGVYFCSQSTHVPWTFGGGTKLEIK [chain 1 G109P]: in the series with fluorescein, the Kd was not below 10 µM. Further, the yeast surface expression in series [1] stood at 0.312.

In the case of chain 1 EVKLDETGGGLVQPGRPMKLSCVASGFTFSDYWMNWVRQSPEKGLEWVAQIRNKPYNYETYYSDSVKGRFTISRDDSKSSVYLQMNNLRVEDMGIYYCTGSYYGMDYWEQGTSVTVS chain 2 DVVMTQTPLSLPVSLGDQASISCRSSQSLVHSNGNTYLRWYLQKPGQSPKVLIYKVSNRFSGVPDRFSGSGSGTDFTLKISRVEAEDLGVYFCSQSTHVPWTFGGGTKLEIK [chain 1 G109E], in the series with fluorescein, the dissociation constant (Kd) is not below 10 µM. In series [1], the yeast surface expression worked out at 0.504.

With chain 1 EVKLDETGGGLVQPGRPMKLSCVASGFTFSDYWMNWVRQSPEKGLEWVAQIRNKPYNYETYYSDSVKGRFTISRDDSKSSVYLQMNNLRVEDMGIYYCTGSYYGMDYWKQGTSVTVS chain 2 DVVMTQTPLSLPVSLGDQASISCRSSQSLVHSNGNTYLRWYLQKPGQSPKVLIYKVSNRFSGVPDRFSGSGSGTDFTLKISRVEAEDLGVYFCSQSTHVPWTFGGGTKLEIK [chain 1 G109K], the Kd in the series with fluorescein was not below 10 µM. Further, the yeast surface expression in series [1] was determined as 0.229.

chain 1 EVKLDETGGGLVQPGRPMKLSCVASGFTFSDYWMNWVRQSPEKGLEWVAQIRNKPYNYETYYSDSVKGRFTISRDDSKSSVYLQMNNLRVEDMGIYYCTGSYYGMDYWDQGTSVTVS chain 2 DVVMTQTPLSLPVSLGDQASISCRSSQSLVHSNGNTYLRWYLQKPGQSPKVLIYKVSNRFSGVPDRFSGSGSGTDFTLKISRVEAEDLGVYFCSQSTHVPWTFGGGTKLEIK [chain 1 G109D]: the dissociation constant Kd with fluorescein stood at 3.64 µM. In addition, the yeast surface expression in series [1] is 0.573.

In the case of chain 1 EVKLDETGGGLVQPGRPMKLSCVASGFTFSDYWMNWVRQSPEKGLEWVAQIRNKPYNYETYYSDSVKGRFTISRDDSKSSVYLQMNNLRVEDMGIYYCTGSYYGMDYWCQGTSVTVS chain 2 DVVMTQTPLSLPVSLGDQASISCRSSQSLVHSNGNTYLRWYLQKPGQSPKVLIYKVSNRFSGVPDRFSGSGSGTDFTLKISRVEAEDLGVYFCSQSTHVPWTFGGGTKLEIK [chain 1 G109C], the Kd with fluorescein was not below 10 µM. The yeast surface expression in series [1] is 0.39.

Turning to chain 1 EVKLDETGGGLVQPGRPMKLSCVASGFTFSDYWMNWVRQSPEKGLEWVAQIRNKPYNYETYYSDSVKGRFTISRDDSKSSVYLQMNNLRVEDMGIYYCTGSYYGMDYWHQGTSVTVS chain 2 DVVMTQTPLSLPVSLGDQASISCRSSQSLVHSNGNTYLRWYLQKPGQSPKVLIYKVSNRFSGVPDRFSGSGSGTDFTLKISRVEAEDLGVYFCSQSTHVPWTFGGGTKLEIK [chain 1 G109H], the Kd with fluorescein was not below 10 µM. In series [1], the yeast surface expression amounted to 0.268.

On to chain 1 EVKLDETGGGLVQPGRPMKLSCVASGFTFSDYWMNWVRQSPEKGLEWVAQIRNKPYNYETYYSDSVKGRFTISRDDSKSSVYLQMNNLRVEDMGIYYCTGSYYGMDYWLQGTSVTVS chain 2 DVVMTQTPLSLPVSLGDQASISCRSSQSLVHSNGNTYLRWYLQKPGQSPKVLIYKVSNRFSGVPDRFSGSGSGTDFTLKISRVEAEDLGVYFCSQSTHVPWTFGGGTKLEIK [chain 1 G109L], for which the Kd with fluorescein is not below 10 µM. Besides, in series [1], the yeast surface expression was 0.217.

As for chain 1 EVKLDETGGGLVQPGRPMKLSCVASGFTFSDYWMNWVRQSPEKGLEWVAQIRNKPYNYETYYSDSVKGRFTISRDDSKSSVYLQMNNLRVEDMGIYYCTGSYYGMDYWQQGTSVTVS chain 2 DVVMTQTPLSLPVSLGDQASISCRSSQSLVHSNGNTYLRWYLQKPGQSPKVLIYKVSNRFSGVPDRFSGSGSGTDFTLKISRVEAEDLGVYFCSQSTHVPWTFGGGTKLEIK [chain 1 G109Q], in the series with fluorescein, the Kd is not below 10 µM. For the same variant, the yeast surface expression in series [1] stood at 0.391.

For the variant chain 1 EVKLDETGGGLVQPGRPMKLSCVASGFTFSDYWMNWVRQSPEKGLEWVAQIRNKPYNYETYYSDSVKGRFTISRDDSKSSVYLQMNNLRVEDMGIYYCTGSYYGMDYWIQGTSVTVS chain 2 DVVMTQTPLSLPVSLGDQASISCRSSQSLVHSNGNTYLRWYLQKPGQSPKVLIYKVSNRFSGVPDRFSGSGSGTDFTLKISRVEAEDLGVYFCSQSTHVPWTFGGGTKLEIK [chain 1 G109I], the Kd in the series with fluorescein was not below 10 µM. Moreover, the yeast surface expression in series [1] came to 0.269.

With chain 1 EVKLDETGGGLVQPGRPMKLSCVASGFTFSDYWMNWVRQSPEKGLEWVAQIRNKPYNYETYYSDSVKGRFTISRDDSKSSVYLQMNNLRVEDMGIYYCTGSYYGMDYWNQGTSVTVS chain 2 DVVMTQTPLSLPVSLGDQASISCRSSQSLVHSNGNTYLRWYLQKPGQSPKVLIYKVSNRFSGVPDRFSGSGSGTDFTLKISRVEAEDLGVYFCSQSTHVPWTFGGGTKLEIK [chain 1 G109N], the Kd with fluorescein was not below 10 µM. Also, the yeast surface expression in series [1] was 0.622.

These data come from the FLAb antibody collection (doi:10.7554/elife.23156).
